The source of these data is patent US20240392020A1 (JIANGSU HENGRUI PHARMACEUTICALS, published 2024).

In the experiment the target is T1, HJ-1-L1.
T1 construct: also called chain 3 of HJ-1
The experiment is described as follows: mass spectrometry of the product of four co-transfected chains of HJ-1; mispairing of heavy chain 2 with light chain 3.

Procedure: 0.5 μg of the product was taken for the determination of deglycosylated intact molecular weight. […] Determination of deglycosylated reduced molecular weight: 30 μg of the expressed antibody was taken and lyophilized before adding 10 μL of 8 M Gua-HCl, and the mixture was denatured in a water bath at 70° C. for 10 min. […] Then, 2 μL of 0.025 M DTT was added, and the mixture was reduced for 10 min in a water bath at 70° C. 0.5 μg of the product was taken for the determination of deglycosylated reduced molecular weight. […] Chromatographic column: Poroshell 300SB-C8 5 μm 2.1×75 mm [0420] […] Column temperature: 75° C.

B1: HJ-1-H2 (other)
heavy: EVQLVQSGAEVKKPGSSVKVSCKASGYTFSNYLIEWVRQAPGQGLEWIGVIDPGVGDTNYNENFKGRATLTADKSTSTAYIELSSLRSEDTAVYYCAREDNTGTAFDYWGQGTTVTVSSASTKGPSVFPLAPSSKSTSGGTAALGCLVKDYFPEPVTVSWNSGALTSGVHTFPAVLQSSGLYSLSSVVTVPSSSLGTQTYICNVNHKPSNTKVDKKVEPKSCDKTHTCPPCPAPEAAGGPSVFLFPPKPKDTLMISRTPEVTCVVVDVSHEDPEVKFNWYVDGVEVHNAKTKPREEQYNSTYRVVSVLTVLHQDWLNGKEYKCKVSNKALPAPIEKTISKAKGQPREPQVCTLPPSREEMTKNQVSLSCAVKGFYPSDIAVEWESNGQPENNYKTTPPVLDSDGSFFLVSKLTVDKSRWQQGNVFSCSVMHEALHNHYTQKSLSLSPGKDYKDDDDK
notes: also called chain 2 of HJ-1
As for B1, the binding result is given as “no binding”.
